Experiment: soluble on expression in E. coli; label from the status in PepcDB or PDB records
For “MKKLFGVGPDLLGDGKVLFEWSPKGNFLAAAGSKRKVNIFDRNGRLYDEVHFPPAEYPNPDGRACAAAQMQWDPAGEQLAILPAGNTHVFIWLAGNKEVQKIESEFKTQEFSCMAWSRNGMYLGVATVKGNVMMYNARERKKTPLVGKHTKKIVAAAWNKDNIMALAGQDKTVTLTDGVTGDTIKTFHLKDVPMDLCVSDKKEDGYSRREENTYSLNINRKTLYIMQCTAEGDRPLELAFLDTYGPIMKHSWFGDGYILLGYKNGYVAVVSSHSREISEEVHSGKYLDTLTDVTYCASLGRVAMAGANCVRVLDANADYNEIKGDAVDLDANQAIEKVGWTKDGQVLTVGTHNGYMHSFLASLPMVYDFHGTRVLYLTSLLEMTLLDVSRRQTVARIELENEPAFCGLGPSHAAVGMNNQAAFYSLGEKVGKVVQRREYLGTITAIKLNETQAAVLTGGHVVVHPISVEAGHAPDELDVVIPGPGQPANITCVALTPTFVITGSRTGTLSYYLSPDVTPVNEFRHDDGGIVRLFPQATGARLVFEDDKGALHLFNPVNDHVVAVPYTGRAETVMWDTSDTNVMVIGDGTALHSFLYVPVSLTGPQVQDLGKQAVPATHTPLTVCNGVVGCRLKSGAMDNVTLESHKMLQPGDAVARAAPAKRFAAALKLYKLRDAVECAKQLRQVESWRTLALAALDVLDIDTAINAYREIGDASMVLSLERVRQHEDRNLLSAHIMVLLEKDYGQAQELFLRSSVPRAALEMRMDLKHWTDALKLAEQLDPDAIATICKEHGAMLEMTGEYSNAKSHYQQALDALAVSVGPAQPDLEAACKAGIARTTLQLGDLRQGRQLAMQLNSQTLFKECALILEGLQQLTEAAEMYERAGQFERAASIYIQTKNFAAAAPLMARISSSKLQLQFAKAKEAEGRWQEAAAAYEAAGDMDAVVRLCLERLSQPQRAYAIVRKTQSVEAANQLSRFCLQSQDFGGAVEFLLMAGQMDQAFDIAMGHNEMDTFARIVAASAKPVDYQRIAQYYESRGEYDKAADMWSKCDQAPRAVQLYLKVGTNPALEKAVQVVEQTRSHQLGVLVLDYVNEEKDGTTRDEFRFKLNIAMGQFAEAARDALEMARFEQEEGNYRVAHDKLFGTVKQLEALNTKPPGELLRALMLLHSYTLVKSLIAINDHTTAARMLVRVARNISKFPKHIVPILTSTVIECHRANLKKTAFEYASMLMRPEYRDQVAVKYKKKIELMVRKPEKDPEELEEPLADCPFCNMPGPETELQCISCQNILPFDLATGKRMVLSDWAECPGCKFPASASQFIRIISAEGRCPM”, the “soluble on expression in E. coli” value was “not soluble”.
In the case of “MAHHHHHHMDPYPPSRVEVTVDDSFGRLEGLAEEHSIIEETWRKLMKGLERKILHNGLKFRLHNVVQYDNGKCHLQLGITDYKSSMGVATNVDYFLRSTSDGGTDRRKYLARALGIECFTTTSDEKAVMFCRSSLVSEYPGYYCFPGGHPEPQDILCQLPLSGPATGNHNNIDHNHNSVQNSDLLNDRLRREEAVSQLSGVNPEVIVQHLFDSAVMEVADELGVERTACRNRGLLSIVENMKNMKPDACFWVEVNQTAAEVQARFDSRVGFDAFESVPHSLVVVHLDDIVDCEGAELFIKDCLGGKVTPPSVACWLHGMACYRSLRGTLGKAQTHSFA”, the “soluble on expression in E. coli” value is reported as “not soluble”.
For “MGSDKIHHHHHHMSDITSKVSLTNVAADNTVSSEQAKDINSIGQDLGIDMMASLQQAPFDEMLIREYLLDNPDFFNRYPELLVAMRVPHAERGAVSLVERRQELLRQRVSQLEEEITSLMNIATHNEKIFKFNTELSFKMLASQDLGELRLVLSEGLKNEFGFSHVRLITVHDIDSELAKIWRHRVQSGYYFGRLTQSESKRLFGSEVGSVALTKLSDENGQVIFAIASNDPTHFHPDMDSLLFSQLRRLLDHMLPKM”, the “soluble on expression in E. coli” value was “not soluble”.
For “MGSDKIHHHHHHMRLRRLPVYVDAYKEKPNAEIFIYYSSRGTGKTYDIATVNLERKFSADGGDTLAIRKKKNKTTQSIHKEILELLSIYNLRKFFNISKAKIESKSLIFGKKRAFVFEGGHDTRDLKSYAHFKDLWLEEANQFSADDIEMLVPTMREQGGRIYMSSNPVPKSHWLYKRYLSNQDNPAVCIIKSTYRDNPFLNGGDVQAWLEKQRLAYHGNDIGFRIEVLGEEFDFGTARLIKKFNVCGPEILSRANGSYYTGIHVKGNRICFLEILVGRISYLPVVIITNACSKVLLSKTDYQSEINKFKGVFVLPTAREELKYVFSRFGRGTLLAKKRNLYSLSDYLIPSNLNVVNKPETTDVISEFNETEYYYDESSAEDSEVTNFVMQKDLVYIPAFLNAISVFS”, the “soluble on expression in E. coli” value was “not soluble”.
In the case of “SDKVINPQVAWAQRSSTTDPERNYVLITVSIADCDAPELTIKPSYIELKAQSKPHVGDENVHHYQLHIDLYKEIIPEKTMHKVANGQHYFLKLYKKDLESEYWPRLTKEKVKYPYIKTDFDKWVDADEQDEVEA”, the “soluble on expression in E. coli” value is reported as “soluble”.
For “MMTQIIHTEKAPAAIGPYVQAVDLGNLVLTSGQIPVNPATGEVPADIVAQARQSLENVKAIIEKAGLTAADIVKTTVFVKDLNDFAAVNAEYERFFKENNHPNFPARSCVEVARLPKDVGLEIEAIAVRK”, the “soluble on expression in E. coli” value was “soluble”.
In the case of “MQNDNAKPISISKQLVYDAFLRVKANRGSAGIDKVTLEDYEKNLRGNLYKLWNRMSSGSYFPPSVKLVEIPKSTGGKRPLGIPTVSDRVAQMAVVMLITPSIEPCFHEDSYAYRPHRSAHDAVGKARERCWKYAWVLDMDISKFFDTIDHELLLKALKRHTQEKWVLMYIERWLKVPYEKSDGSQVDRALGVPQGSVIGPVLANLFLHYTFDKWMEKNFPRVPFERYADDTICHCHSLKQAEYMQAMIQQRFECCRLRLNEEKTKIVYCKSSRQKECYPNVTFDFLGFTFQPRESVDKYGNRFTGFLPAISRKSMKRINETMRSWHLNRHSNLTLEHLASDINPIVRGWMTYYGKFYPTRLKWFMQTLNGRLARWVMCKFERYRHRFYPAQEWLARIAEKEGLIFYHWKCGALPRFTNKEKVSSQLIMVK”, the “soluble on expression in E. coli” value is reported as “soluble”.
In the case of “MELDVKFEEKDLQHIRQVFSRLRGLGKSDGLTRKMASVLQEDAEDAFAMERTPDGVKWRDLSPKYKKQRYNKGYTGNILQRHGDLAGSLNIAYGDNFAAVGVAEHYGEYHQLGTKKMSARPFLGISEDGVEEIKEILNNAIRRALRD”, the “soluble on expression in E. coli” value is reported as “not soluble”.
With “MGSDKIHHHHHHMTSDVLVIAPFRRPTFRTAISHLYPVTEPWDSPPLITCGAIQEAGLEVDYVALQNIFNGYDPERDGRDLNEILGVLHPKVVIFSSDHFIPSRSTASIYGISLVSKIFKSRERPPLIGVCGRLATVAAQRLFAEVPEVDFAVIGESDGVIGEVVADLLAADMEETSRRHGYVHTRTAPARDIAYMGDVNDVALPAFALALPSIAQYRSRFGLEENPLPFSLRTSFGCKFKCRFCAGVPHWLDYRKKSPDRVQAELDAFLNQLGDQARISFLEDEIFTRDPEHVAAITALLKERNIYLDGLYTHSTLLTPEIAADLCTVADRVFTGLDNADDQILRKMGKGQLLDTVLDAVEKAQAASLKVHLEWIIGTPEETLDTLVTSLSTIFNLLSTHAVESINTYVYCPHPGTDYTVNAKKYRMRVLDTFDGIQESGGYPAFDTANLTRNQIYTAYLMSQLVIAEVTAARQHSSIPRAVVPASRSELLRLFGMIGEGQVAFDFDEAPVGRVSYPEGTSRA” the “soluble on expression in E. coli” value was “not soluble”.
In the case of “MGSDKIHHHHHHMTLRISQLAQKFGLSRSTLLYYEKQGLIRGRRLDNGYRVYSENDLQRLILIQKLQAGGLTLKECLACLDARIDKALLQTRLAELDADIAQKQASRTLLAALLGEGDLKAWHESLTKEAPEAHLDWLQTQGFSEKEALHLTWLSKDMNEHDKFMADFMQIFSPLTRWAPGSEADTLKALASVPLTPTRILDIGCGKGLATRMLAKHTKASITAIDNEEDALTELQQHLQHRNLASRVSTLCASMTDIPLPAASADLIWAEGSAYIMGVEQALKSWRKLLVDNGVLVLSDLVWLTDDKAPEAVAFWQQDYPAMTSVEARMAQMQAAGFEVIDSFSLSNEAWKSFTGPLAARVDEVSEQLAGSQALANVQRELGIFSRFLGQFGYQFFVLQKRG”, the “soluble on expression in E. coli” value is reported as “not soluble”.
For “MPFGLKSSQSIDDKFMSITQMKNLIHYVKKNDALSHLCIYILIITGSRFKPVQHLRYEDLNFKKSCIHLNDTKNKYSKRNVKVRIKDLEYIQSVINKHPINQNGYIFHNFINFISYSAINDVLVRFCLKYKYDKYTLKSLRHTHCSYLLAKGISIQYISKRLGHADIHTTLKIYSHLIKEFEDSENSLIEKNLNDLFSDLEHHHHHH”, the “soluble on expression in E. coli” value was “soluble”.
In the case of “MMTKNAYAFVVIEESVMVFKRTKDEGLMPIFEGFVPLKEGFLKSFKERCNLEFLENLDLLFLYDKPSAHEIFSLCKELKNSIWDRKLVVALVEALEGFKDWNLSLKIEDKRSNSLGNGTKKLLTNADLGSDYKTIVIDSMKTYHQSQQEKYKRERGETLEVRPTTPPSYGGGSIRISGDKKPDFDEENF”, the “soluble on expression in E. coli” value is reported as “not soluble”.
In the case of “MRADGFVPLQALLQLPQFHSFSIEDVQLVVNTNEKQRFTLQPGEPSTGLLIRANQGHSLQVPELELTPLETPQALPLTLVHGTFWKHWPSILLKGLSRQGRTHIHLASGLPGDPGVISGIRPNCEVAVFIDGPLALTDGIPFFCSANGVILTPGNAEGFLLPKYFKEALQLRPTRKPLSLAGDKETETQSGPKLSSRGGRRKIQQ”, the “soluble on expression in E. coli” value is reported as “soluble”.
With “MGHHHHHHSHIHRIDSTEVIYQPRRKRAKLIGKYLMGDLLGEGSYGKVKEVLDSETLCRRAVKILKKKKLRRIPNGEANVKKEIQLLRRLRHKNVIQLVDVLYNEEKQKMYMVMEYCVCGMQEMLDSVPEKRFPVCQAHGYFCQLIDGLEYLHSQGIVHK” the “soluble on expression in E. coli” value was “soluble”.
In the case of “MLSALLIRNIRNASKLASVAGPNSDRIVNVKWSDGKTGVFPLIWLRDTSPDPSTYTISPAMTARKLTMLEFDVEQNARKLWIDEDANCLKIEWESGVLSEFPSEWLKIRNPSDQEARRRRRKVYLFPEQTWGKAEIEGKLKKFSHEEFMKNEQVVHDFLQAVCIDGIAVLKGAPQGVRGAVEAIGDRIGMIKRTHFGLVFEVSLKADASNMAYASNGGLPFHTDFPSLSHPPQLQMLHMLQSAEEGGHSLFVDGFHVAEQLRVEKPEIFKILTTQSMEYIEEGYDVHEINGKTIRFDYDMCARHKVIRLNDDGKVNKIQFGNAMRSWFYDCEPSKVQDVYRAMKTFTEYCYQPRNMLKFRLEDGDTVLWANQRLLHTRDGFRNAPEKARTLTGCYFDWDIVKSRVRFLRDKLSLEQNQPSA”, the “soluble on expression in E. coli” value is reported as “not soluble”.
In the case of “MAAESATTETVEKSGNEESTVEVKVNGEAQNPPQESAKPAESVEDDDEPAPAKKRSGGDSEEKEDEAAEDGPEDGEEKSNLDDDQNVENPAYIPKTGRFYMHDDNRRGDVNNSQVQDDDSDDRRNLKKSRADCDWKHDRFDEKFQRPKTKKQIVTKYGFDIRHKDGTPIQDGEEIDAPAPESTEEESSDARQVSRQQKDRRVSSTTRGKVGKSGTSRRPMKQREREDTVDESKGEEEEDQGVRPAQKRQVKQQEKPRKQKPAAPPSSEENEEDEDDGAIRRGQRRAVPLRRGTTSGPPSRLRGRMSHPMGPPRRSSGAPPSSASNRRPVESSSRGPPPPPSSSSRRDYSHQGDRNDDRFENHRRGVIRGASRGGGTVTRGTGGYGRTGAIRGGVRGSGAPRYGVRRTDTSEQSEGYQRGGSGTDYSSPRPNHQSDRSYQASSTNFRGGSHPHPSANVYPSSRGGYSSNNADYASRGGGGYHGPPQHHNNHHNHQQKRFVQGPPPPMVAVGVVPGNVVPPPQMTRGSTHGGNQHNGGGGGGSGGQQRIRQPTDVVYFDPQQQQGTRQLPPRSKKVIPIVDPKDHQ”, the “soluble on expression in E. coli” value is reported as “not soluble”.
For “MTGQNGQVARISPGKFRQLGPVNWLVAKLAARAVGAPQMHLFTTLGYRQYLFWTFAIYTGRLLHGRLPGVDTELVILRVAHLRSCEYELQHHRRMARRRGLDANTQATIFAWPDVPDGDGPRKVLSARQQALLQATDELIKDRTITAGTWERLATHLDPRLLIEFCLLATQYDAIAATITALAIPPDNPQ”, the “soluble on expression in E. coli” value was “soluble”.
In the case of “MIGGGIGISFRNEFFNPQTPVNIPVQGFSNGARLRLVLLPTSADSRFHINLRTPDDIVLHFNARFDEGAVVNNSTSGGGWQSEDRHANPFQQNKIYTLEFVSNGGIISIFVNGAHFADFVERTPSHGVHLIEIEGGVHVHSAHVSH”, the “soluble on expression in E. coli” value is reported as “soluble”.
